According to publication PMC3901395, “Multivalent interactions of the SUMO-interaction motifs in RING finger protein 4 determine the specificity for chains of the SUMO” (Biochemical Journal, 2013):

Key:
[1] = system: tri-SUMO2–GFP–HA2; experiment: Proteasomal targeting of tri-SUMO2–GFP–HA2 by RNF4 in yeast; format: cell-based, S. cerevisiae; settings: yeast coexpressing RNF4; Western blot, normalized to CDC11
From the text: (§1) For expression in Escherichia coli, linear poly-SUMO chains were generated as described previously with slight modifications. After the combined PCR/ligation reaction, the 4×SUMO2-ΔN11 or 4×SUMO1-ΔN15 DNA polymers were separated from smaller polymers by agarose gel electrophoresis and individually extracted (Macherey–Nagel). These were then subjected to a second PCR with primers to create BamHI and XhoI restriction sites, a C-terminal GG motif and a stop codon. The resulting fragments coding for di-, tri- and tetra-SUMO2-ΔN11 or SUMO1-ΔN15 chains were amplified and cloned into pGEX-4T2. […] Each monomer in these chains is separated by RS replacing the natural GG motif. […]
wt (wild-type) S. cerevisiae strains (JD47-13C) containing centromeric (low copy) plasmids expressing various (SUMO2)n–GFP–HA2 ([…]) fusions were grown overnight in minimal medium composed of 0.67% yeast nitrogen base with 2% raffinose as a carbon source. Cells from the overnight cultures were used to inoculate cultures with minimal media containing 2% galactose at a starting attenuance measured at 600 nm of 0.25. […] The levels of substrates and, as a loading control, levels of CDC11 were analysed by Western blotting and detection with an Odyssey infrared fluorescence imaging system (LI-COR).

[2] = system: mono-SUMOs and SUMO chains; experiment: ITC binding to mono-SUMOs and SUMO chains (general statements); settings: full-length dimerized RNF4 vs SIM domain
From the text: as §1, with “motif. A similar strategy was used to design C-terminally GFP–HA2-tagged linear poly-SUMOs in the copper-inducible Ycplac22 vector for expression in S. cerevisiae.” for “motif.”
The mono-SUMOs and linear poly-SUMO1 and poly-SUMO2 proteins as well as all RNF4 constructs were expressed as GST-fusion proteins from E. coli Rosetta™ 2(DE3)pLysS cells (Novagen) cultivated in LB medium with 100 μg/ml ampicillin and 30 μg/ml chloramphenicol after induction with 0.1 mM IPTG at 20°C for 12 h. […]
Binding of peptides and proteins to SUMOs was investigated by ITC using either a VP-ITC or an ITC200 (GE Healthcare). […] Protein concentrations were determined by measuring the absorption at 280 nm. […]

B1: RNF4 FL: full-length human RNF4 (RING finger protein 4); FLAG-tagged in yeast, HA-tagged in HeLa cells (protein)
chain: MSTRKRRGGAINSRQAQKRTREATSTPEISLEAEPIELVETAGDEIVDLTCESLEPVVVDLTHNDSVVIVDERRRPRRNARRLPQDHADSCVVSSDDEELSRDRDVYVTTHTPRNARDEGATGLRPSGTVSCPICMDGYSEIVQNGRLIVSTECGHVFCSQCLRDSLKNANTCPTCRKKINHKRYHPIYI
modifications: left off: GST, end not stated, cleaved
notes: full-length human RNF4 (RING finger protein 4); FLAG-tagged in yeast, HA-tagged in HeLa cells
[1]
  level of tri-SUMO2–GFP–HA reporter (control without RNF4 = 100%): 45%
[2]
  binding to SUMO chains compared with the monomeric SIM domain: stronger as compared with the monomeric SIM domain, especially for short SUMO chains
